# Legend:
# Type in all cases: cell-based, Escherichia coli
# TonB = assay: Proteinase K accessibility assay in spheroplasts; conditions: wild-type W3110 spheroplasts; pmf collapsed; 60 μM CCCP or 10 mM DNP
# Description: Proteinase K accessibility assays. For reversibility assays, spheroplasts were generated from wild-type cells (W3110) and treated with CCCP to collapse pmf. […] Samples were harvested and treated with proteinase K or left untreated. […] To re-establish pmf for the remaining sample, the proteinase K untreated, CCCP-treated spheroplasts were subsequently pelleted, washed, and resuspended in buffer without CCCP. These washed spheroplasts were divided in half. One sample was re-treated with CCCP, and one was treated with solvent only (DMSO). Both were then treated with proteinase K. As a control, whole cells were also treated with proteinase K or left untreated. All manipulations occurred at 4° C.
# For standard assays, spheroplasts were prepared and treated with proteinase K as described previously (Larsen et al, 1999, Mol. Microbiol. 31, 1809-1824). The effect of protonophores was examined after treatment of spheroplasts with 60 μM carbonylcyanide-m-chlorophenylhydrazone (CCCP) or 10 mM DNP compared to an equal volume of solvent only, dimethyl sulfoxide (DMSO). After limited proteolysis, TCA precipitated samples were visualized on immunblots of 11% or 15% SDS polyacrylamide gels with TonB-specific monoclonal antibodies or ExbD-specific polyclonal antibodies, respectively. All manipulations occurred at 4° C.
# TonB-ExbD complex = assay: Formaldehyde crosslinking in spheroplasts; conditions: CCCP-treated W3110 spheroplasts, 60 μM
# Experimental: Formaldehyde crosslinking in spheroplasts. Spheroplasts were prepared as above for standard assays and treated with DMSO solvent or 60 μM CCCP. A CCCP-treated sample was also treated with proteinase K for 15 min as described above. For formaldehyde crosslinking, spheroplasts were pelleted and resuspended in 100 mM sodium phosphate buffer, pH 6.8 containing 0.25M sucrose and 2 mM MgSO4. For CCCP-treated spheroplasts, CCCP was maintained in the crosslinking buffer. Samples were treated with 1% monomeric paraformaldehyde (inverting to mix) for 15 min at room temperature. Pellets were solubilized at 60° C. in Laemmli sample buffer.
# [1] = system: ferrichrome-mediated iron transport; assay: [55Fe]-ferrichrome uptake, ExbD cys substitutions, with or without CuoP treatment; conditions: for activity: initial rate of ferrichrome-mediated iron transport relative to wild-type plasmid-encoded ExbD: non-reducing conditions, substitution expressed to native ExbD levels, strain RA1045
# Experimental: Since CuoP treatment catalyzed almost 100% dimer formation for some of the cys substitutions, attempts were made to determine activity of the dimeric form. […] The amount of CuoP was reduced 10-fold to 0.03 mM and cells had to be suspended in fully supplemented M9 medium as described in Experimental Procedures.
# Activity assays. Initial rates of [^55Fe]-ferrichrome uptake were determined. For assays where cultures were treated with copper-(1,10-phenanthroline)3, harvested cells were pelleted, resuspended in 1×M9 supplemented as described above (no sodium propionate added), and treated with an equal volume 0.06 mM CuoP ([final] 0.03 mM) or 0.5 mM sodium phosphate buffer, pH 7.4 (buffer only) for 5 min, at 37° C. with aeration. Cells were pelleted, and the standard iron transport protocol was followed starting with resuspension in the assay medium.
# In all assays the CuoP solution was removed and assays carried out in identical media, but the medium present during the 5 min CuoP treatment was important and differentially affected activity of a wild-type strain.
# [2] = system: ferrichrome-mediated iron transport; assay: as above; conditions: 0.03 mM CuoP, cells in unsupplemented 1xM9
# [3] = system: 55Fe-ferrichrome transport; assay: Transport of 55Fe-loaded ferrichrome (ExbD deletion variants)
# Experimental: For assays in 1×M9, 37 μM Fe (proteinase K accessibility, [^55Fe]-ferrichrome uptake, formaldehyde crosslinking, and sucrose density gradient fractionation), the following percentages of arabinose were added at subculture to induce expression of ExbD variants near native levels of ExbD: pKP660=no inducer, pKP761=0.0008%, pKP760=0.0008%, pKP759=0.3% glucose (to repress basal levels of overexpression), pKP758=0.002% glucose (to repress basal levels of overexpression), pKP762=0.0006%, pKP757=0.0007%, pKP756=0.006%, pKP755=0.008%, pKP754=0.15%, pKP753=0.18%, pKP752=0.2%, pKP763=0.18%, pKP764=0.2%, pKP724=0.006%.
# Activity assays: Spot titer assays were performed. Initial rates of [^55Fe]-ferrichrome uptake were determined.
# [4] = CuoP-treated (0.03 mM, 5 min, supplemented M9)
# [5] = overexpressed ExbD cys substitution
molecule,measurement,setting,value
"N#CC(C#N)=NNc1cccc(Cl)c1 [CCCP, carbonylcyanide-m-chlorophenylhydrazone]",TonB conformation (proteinase K sensitivity) after protonophore treatment,TonB,detection of the previously observed proteinase K resistant conformation of TonB
same,TonB-ExbD formaldehyde crosslinked complex,TonB-ExbD complex,not detected
O=[N+]([O-])c1ccc(O)c([N+](=O)[O-])c1 [DNP],TonB conformation (proteinase K sensitivity) after protonophore treatment,TonB,Identical results
"copper-(1,10-phenanthroline)3 [CuoP, reference compound]",effect on iron transport activity of a wild-type strain,[1]; 0.03 mM CuoP in supplemented 1xM9,did not inhibit activity
same,iron transport of a wild-type strain remaining after CuoP treatment,[2],about 25%
ExbD I102C: ExbD cysteine substitution I102C (pKP1010) (protein) MAMHLNENLDDNGEMHDINVTPFIDVMLVLLIIFMVAAPLAIVDVKVNLPASTSTPQPRPEKPVYLSVKADNSMFIGNDPVTDETMITALNALTEGKKDITCFFRADKTVDYETLMKVMDTLHQAGYLKIGLVGEETAKAK,activity: initial rate of ferrichrome-mediated iron transport relative to wild-type plasmid-encoded ExbD,[1],80%
ExbD K108C: ExbD cysteine substitution K108C (pKP1016) (protein) MAMHLNENLDDNGEMHDINVTPFIDVMLVLLIIFMVAAPLAIVDVKVNLPASTSTPQPRPEKPVYLSVKADNSMFIGNDPVTDETMITALNALTEGKKDITIFFRADCTVDYETLMKVMDTLHQAGYLKIGLVGEETAKAK,activity: iron transport relative to wild-type ExbD,[1]; [4],at least 70%
same,activity: initial rate of ferrichrome-mediated iron transport relative to wild-type plasmid-encoded ExbD,[1],~110%
same,activity: iron transport relative to wild-type ExbD,[1]; [5],110%
ExbD Y112C: ExbD cysteine substitution Y112C (pKP1020) (protein) MAMHLNENLDDNGEMHDINVTPFIDVMLVLLIIFMVAAPLAIVDVKVNLPASTSTPQPRPEKPVYLSVKADNSMFIGNDPVTDETMITALNALTEGKKDITIFFRADKTVDCETLMKVMDTLHQAGYLKIGLVGEETAKAK,activity: iron transport relative to wild-type ExbD,[1]; [4],5%
same,activity: iron transport relative to wild-type ExbD,[1]; buffer only treated samples,about 90%
same,activity: iron transport relative to wild-type ExbD,[1]; [5],90%
"ExbD: wild-type E. coli ExbD protein, plasmid-encoded (pKP1194, exbD in pBAD24) (protein, listed as Escherichia coli) MAMHLNENLDDNGEMHDINVTPFIDVMLVLLIIFMVAAPLAIVDVKVNLPASTSTPQPRPEKPVYLSVKADNSMFIGNDPVTDETMITALNALTEGKKDITIFFRADKTVDYETLMKVMDTLHQAGYLKIGLVGEETAKAK",Initial Rate of Transport,"[3]; 55Fe-loaded ferrichrome, plasmid-encoded ExbD variant in strain KP1522",672.2 ± 15.97
same,% Wild-type Activity,"[3]; initial rate of variant strain divided by initial rate of wild-type strain x 100, strain KP1522",100%
ExbD G96C: ExbD cysteine substitution G96C (pKP1004) (protein) MAMHLNENLDDNGEMHDINVTPFIDVMLVLLIIFMVAAPLAIVDVKVNLPASTSTPQPRPEKPVYLSVKADNSMFIGNDPVTDETMITALNALTECKKDITIFFRADKTVDYETLMKVMDTLHQAGYLKIGLVGEETAKAK,activity: initial rate of ferrichrome-mediated iron transport relative to wild-type plasmid-encoded ExbD,[1],85%
ExbD M116C: ExbD cysteine substitution M116C (pKP1024) (protein) MAMHLNENLDDNGEMHDINVTPFIDVMLVLLIIFMVAAPLAIVDVKVNLPASTSTPQPRPEKPVYLSVKADNSMFIGNDPVTDETMITALNALTEGKKDITIFFRADKTVDYETLCKVMDTLHQAGYLKIGLVGEETAKAK,activity: iron transport relative to wild-type ExbD,[1]; [4],20%
same,activity: iron transport relative to wild-type ExbD,[1]; buffer only treated samples,about 90%

# From patent US20120208744A1, “ANTI-MICROBIAL AGENTS AND COMPOSITIONS AND METHODS OF PRODUCTION AND USE THEREOF” (The Penn State Research Foundation, priority 2011, published 2012)
